How the values were obtained:
[1] = target: fluorescently labeled phosphate-binding protein (PBP) from E. coli (Life Technologies, PV4406) (Escherichia coli, UniProt P0AG82, A222C); settings: inorganic phosphate ([Pi]); two-state binding isotherm; TrisHCl pH 7.6
Experimental: Briefly, 100 μL of each sample was mixed with 100 μL of 1 μM PBP in Phosphate Sensor Detection Buffer (20 mM TrisHCl pH 7.6, 0.05% Triton X-100), and fluorescence of the mixture was immediately read out at an excitation/emission of 430/450 nm on a Biotek SYNERGY™ H4 plate reader spectrophotometer. When measuring phosphate content in the AP Reaction Buffer, the buffer was diluted 1:20 in water prior to incubation with the sensor in order to minimize interference from the concentrated MOPS and salt solutions on the PBP binding thermodynamics. PBP stocks were stored as 10 μM aliquots in Phosphate Sensor Storage Buffer (10 mM TrisHCl pH 7.6, 50 mM NaCl) at −80° C. and individually thawed prior to use. […] Error bars reflect the standard deviation over three measurements.

[2] = system: CC1(C)C2=C(Cl)C(=O)C(Cl)=CC2=Nc2ccc(OP(=O)(O)O)cc21; experiment: Michaelis-Menten kinetics of purified AP with DDAOP; type: biochemical, E. coli; settings: other: substrate DDAOP, purified protein, pH 8.0
Source text: (§1) Preparation of alkaline phosphatase protein constructs.
(§2) Analysis of alkaline phosphate activity.
(§3) Alkaline phosphatase was used as a model system.

[3] = system: CC1(C)C2=C(Cl)C(=O)C(Cl)=CC2=Nc2ccc(OP(=O)(O)O)cc21; experiment: Michaelis-Menten kinetics of yeast-displayed AP with DDAOP; type: biochemical, E. coli; settings: other: substrate DDAOP, yeast display, pH 8.0
Source text: as §1, §2
For kinetic measurements on the μSCALE platform, a series of images were acquired at set intervals with 600/60 nm excitation/655 nm long pass emission filters to generate single-cell reaction time courses for each cavity in the array. […] Error bars reflect the standard deviation across all cavities in each spot and were used to fit a calibration line using weighted least squares. In both cases, the linear regime of each kinetic time series was used to estimate reaction rates.
as §3

fluorescently labeled phosphate-binding protein (PBP) from E. coli (Life Technologies, PV4406), sequence (P0AG82 26-346 A222C): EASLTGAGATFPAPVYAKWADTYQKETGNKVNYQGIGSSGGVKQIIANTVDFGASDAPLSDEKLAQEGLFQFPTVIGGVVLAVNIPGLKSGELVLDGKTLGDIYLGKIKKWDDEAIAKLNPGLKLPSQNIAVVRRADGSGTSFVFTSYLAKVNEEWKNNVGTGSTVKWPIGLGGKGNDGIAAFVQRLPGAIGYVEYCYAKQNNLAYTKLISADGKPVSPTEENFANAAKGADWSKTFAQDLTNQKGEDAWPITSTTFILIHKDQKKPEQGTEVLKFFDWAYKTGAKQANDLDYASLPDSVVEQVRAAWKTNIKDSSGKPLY

In the case of O=P(O)(O)O [inorganic phosphate], the Kd [1] is reported as 940 nM.
In the case of “E. coli alkaline phosphatase (AP), wild type (WT), GENBANK Accession Number M13345, purified protein (Escherichia coli K-12)”, the Km ([2]; 50 pM) is reported as 4.1 ± 0.1 µM, the kcat ([2]; 50 pM) is reported as 15.7 ± 0.2 s⁻¹ and the kcat/Km ([2]; 50 pM) is reported as “(3.8 +/− 0.1) × 10^6 M^-1 s^-1”.
“E. coli alkaline phosphatase (AP) variant R166S, yeast-displayed (Escherichia coli K-12; R188S)” showed a Km [3] of 55 ± 7 µM.
“E. coli alkaline phosphatase (AP) variant R166S, purified protein (Escherichia coli K-12; R188S)” was tested, and the Km [2] was 51 ± 4 µM, the kcat [2] was 0.7 ± 0.2 s⁻¹ and the kcat/Km [2] was “(1.4 +/− 0.4) × 10^4 M^-1 s^-1”.
“E. coli alkaline phosphatase (AP), wild type (WT), GENBANK Accession Number M13345, yeast-displayed (Escherichia coli K-12)” showed a Km [3] of 4.3 ± 0.4 µM.

Reference: patent US10370653B2, “Micro-screening apparatus, process, and products” (priority 2015, dated 2019)
